In US20240417436A1 (BRIGHT PEAK THERAPEUTICS, published 2024):
Bridges are numbered along the chain shown (N, C = ends). Primed or numbered codes have the meaning given here. [ ]: non-standard residue; d: D form. Ygp = O-(8x polyethylene glycol-amino)-tyrosine; Yn3 = O-(9x polyethylene glycol-azido)-tyrosine; PEG4′ = 4x polyethylene glycol; PEG9″ = 9x polyethylene glycol; hSer = N[C@@H](CCO)C(=O)O; Nle = CCCC[C@H](N)C(=O)O

T1: IL-2 receptor βγ complex on pan T cells (human, UniProt P14784 27-551; P31785 23-369)
T1 sequence (looked up) 1: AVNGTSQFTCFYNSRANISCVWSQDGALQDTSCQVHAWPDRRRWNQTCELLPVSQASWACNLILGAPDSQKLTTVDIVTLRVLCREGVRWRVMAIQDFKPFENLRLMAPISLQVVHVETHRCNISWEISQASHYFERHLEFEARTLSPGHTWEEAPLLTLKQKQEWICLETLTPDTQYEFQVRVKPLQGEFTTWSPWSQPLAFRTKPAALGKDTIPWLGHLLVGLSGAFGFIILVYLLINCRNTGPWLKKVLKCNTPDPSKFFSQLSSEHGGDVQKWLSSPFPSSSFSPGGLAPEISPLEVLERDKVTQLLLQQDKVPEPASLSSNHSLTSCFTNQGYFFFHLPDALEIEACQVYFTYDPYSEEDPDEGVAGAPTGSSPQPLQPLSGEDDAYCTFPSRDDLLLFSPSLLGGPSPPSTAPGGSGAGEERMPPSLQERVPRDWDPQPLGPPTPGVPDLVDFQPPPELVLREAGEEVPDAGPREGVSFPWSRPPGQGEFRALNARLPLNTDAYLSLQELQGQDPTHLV
T1 sequence (looked up) 2: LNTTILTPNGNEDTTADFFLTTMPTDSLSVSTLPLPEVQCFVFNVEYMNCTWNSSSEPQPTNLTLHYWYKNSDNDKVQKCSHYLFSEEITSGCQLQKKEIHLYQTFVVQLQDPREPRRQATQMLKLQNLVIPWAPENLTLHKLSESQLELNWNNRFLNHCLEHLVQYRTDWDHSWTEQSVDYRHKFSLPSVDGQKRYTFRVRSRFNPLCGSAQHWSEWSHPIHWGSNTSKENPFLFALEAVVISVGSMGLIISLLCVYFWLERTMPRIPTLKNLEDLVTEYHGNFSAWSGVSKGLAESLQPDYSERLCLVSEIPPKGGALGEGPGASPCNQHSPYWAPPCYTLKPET


target: T1, IL-2 receptor βγ complex on pan T cells; experiment: cell-based or functional assay

Binder	Average EC50, pSTAT5 assay in pan T cells, MMP2 cleaved molecule [nM]	Average EC50, pSTAT5 assay in pan T cells, intact molecule [nM]
CMP-164, MMP2 cleaved (ligand, not fully specified (residue 23, N-terminus); ends and bridges not checked; also: macrocycle (Lys23 side chain - cleavable peptide - glutaryl - Ala1) cut by MMP2, cut site not given here) APTSSSTKKTQLQLEHLLLDLQKILNGINNYKNPKLTR[Nle]L[hSer][Yn3]KF[Ygp][Nle]PKKATELKHLQCLEEELKPLEEVL[hSer]LAQSKNFHLRPRDLISNINVIVLELKGSETTF[hSer]CEYADETATIVEFLNRWITFSQSIISTLT	0.61	–
CMP-169 (ligand, bridge 9-23; not fully specified (residue 9, bridges); ends not checked; also: cleavable peptide of the bridge not defined) APTSSSTKKTQLQLEHLLLDLQEILNGINNYKNPKLTR[Nle]L[hSer][Yn3]KF[Ygp][Nle]PKKATELKHLQCLEEELKPLEEVL[hSer]LAQSKNFHLRPRDLISNINVIVLELKGSETTF[hSer]CEYADETATIVEFLNRWITFSQSIISTLT	–	53.4
CMP-169, MMP2 cleaved (ligand, ends and bridges not checked; also: cleavable moiety between Lys9 and Glu23 side chains cut by MMP2, macrocycle opened, cut site not given here) APTSSSTKKTQLQLEHLLLDLQEILNGINNYKNPKLTR[Nle]L[hSer][Yn3]KF[Ygp][Nle]PKKATELKHLQCLEEELKPLEEVL[hSer]LAQSKNFHLRPRDLISNINVIVLELKGSETTF[hSer]CEYADETATIVEFLNRWITFSQSIISTLT	5.39	–
CMP-300 (ligand, bridge N-23; not fully specified (N-terminus, bridges); ends not checked; also: cleavable peptide of the bridge not defined) APTSSSTKKTQLQLEHLLLDLQEILNGINNYKNPKLTR[Nle]L[hSer][Yn3]KF[Ygp][Nle]PKKATELKHLQCLEEELKPLEEVL[hSer]LAQSKNFHLRPRDLISNINVIVLELKGSETTF[hSer]CEYADETATIVEFLNRWITFSQSIISTLT	–	94.7
CMP-300, MMP2 cleaved (ligand, ends and bridges not checked; also: cleavable moiety between Glu23 side chain and N-terminus cut by MMP2, macrocycle opened, cut site not given here) APTSSSTKKTQLQLEHLLLDLQEILNGINNYKNPKLTR[Nle]L[hSer][Yn3]KF[Ygp][Nle]PKKATELKHLQCLEEELKPLEEVL[hSer]LAQSKNFHLRPRDLISNINVIVLELKGSETTF[hSer]CEYADETATIVEFLNRWITFSQSIISTLT	1.73	–
CMP-301 (ligand, bridge N-23; not fully specified (N-terminus, bridges); ends not checked; also: cleavable peptide of the bridge not defined) APTSSSTKKTQLQLEHLLLDLQEILNGINNYKNPKLTR[Nle]L[hSer][Yn3]KF[Ygp][Nle]PKKATELKHLQCLEEELKPLEEVL[hSer]LAQSKNFHLRPRDLISNINVIVLELKGSETTF[hSer]CEYADETATIVEFLNRWITFSQSIISTLT	–	180
CMP-301, MMP2 cleaved (ligand, ends and bridges not checked; also: cleavable moiety between Glu23 side chain and N-terminus cut by MMP2, macrocycle opened, cut site not given here) APTSSSTKKTQLQLEHLLLDLQEILNGINNYKNPKLTR[Nle]L[hSer][Yn3]KF[Ygp][Nle]PKKATELKHLQCLEEELKPLEEVL[hSer]LAQSKNFHLRPRDLISNINVIVLELKGSETTF[hSer]CEYADETATIVEFLNRWITFSQSIISTLT	0.883	–
CMP-302 (ligand, lactam N-30; ends not checked) GPLGLAGAPTSSSTKKTQLQLEHLLLDLQEILNGINNYKNPKLTR[Nle]L[hSer][Yn3]KF[Ygp][Nle]PKKATELKHLQCLEEELKPLEEVL[hSer]LAQSKNFHLRPRDLISNINVIVLELKGSETTF[hSer]CEYADETATIVEFLNRWITFSQSIISTLT	–	63.4
CMP-302, MMP2 cleaved (ligand, ends and bridges not checked; also: cleaved by MMP2 within the cleavable peptide, macrocycle opened, cut site not given here) GPLGLAGAPTSSSTKKTQLQLEHLLLDLQEILNGINNYKNPKLTR[Nle]L[hSer][Yn3]KF[Ygp][Nle]PKKATELKHLQCLEEELKPLEEVL[hSer]LAQSKNFHLRPRDLISNINVIVLELKGSETTF[hSer]CEYADETATIVEFLNRWITFSQSIISTLT	1.43	–
CMP-303 (ligand, linker N-29 via PEG4′; ends not checked) PLGLAGAPTSSSTKKTQLQLEHLLLDLQEILNGINNYKNPKLTR[Nle]L[hSer][Yn3]KF[Ygp][Nle]PKKATELKHLQCLEEELKPLEEVL[hSer]LAQSKNFHLRPRDLISNINVIVLELKGSETTF[hSer]CEYADETATIVEFLNRWITFSQSIISTLT	–	97.9
CMP-303, MMP2 cleaved (ligand, ends and bridges not checked; also: cleaved by MMP2 within the cleavable peptide, macrocycle opened, cut site not given here, PEG4 linker) PLGLAGAPTSSSTKKTQLQLEHLLLDLQEILNGINNYKNPKLTR[Nle]L[hSer][Yn3]KF[Ygp][Nle]PKKATELKHLQCLEEELKPLEEVL[hSer]LAQSKNFHLRPRDLISNINVIVLELKGSETTF[hSer]CEYADETATIVEFLNRWITFSQSIISTLT	4.4	–
CMP-304 (ligand, linker N-29 via PEG9″; ends not checked) PLGLAGAPTSSSTKKTQLQLEHLLLDLQEILNGINNYKNPKLTR[Nle]L[hSer][Yn3]KF[Ygp][Nle]PKKATELKHLQCLEEELKPLEEVL[hSer]LAQSKNFHLRPRDLISNINVIVLELKGSETTF[hSer]CEYADETATIVEFLNRWITFSQSIISTLT	–	110
CMP-304, MMP2 cleaved (ligand, ends and bridges not checked; also: cleaved by MMP2 within the cleavable peptide, macrocycle opened, cut site not given here, PEG9 linker) PLGLAGAPTSSSTKKTQLQLEHLLLDLQEILNGINNYKNPKLTR[Nle]L[hSer][Yn3]KF[Ygp][Nle]PKKATELKHLQCLEEELKPLEEVL[hSer]LAQSKNFHLRPRDLISNINVIVLELKGSETTF[hSer]CEYADETATIVEFLNRWITFSQSIISTLT	8.61	–
